According to article PMC5895705:

Molecular target: Glucose-6-phosphate dehydrogenase aggregates formed at 50 °C (UniProt P11411)
Experiment: co-sedimentation; as a1 but ClpB homo- or heterohexamers (5 μM) with G6PDH50 aggregates in the absence of DnaK

Glucose-6-phosphate dehydrogenase aggregates formed at 50 °C, sequence (P11411 whole entry): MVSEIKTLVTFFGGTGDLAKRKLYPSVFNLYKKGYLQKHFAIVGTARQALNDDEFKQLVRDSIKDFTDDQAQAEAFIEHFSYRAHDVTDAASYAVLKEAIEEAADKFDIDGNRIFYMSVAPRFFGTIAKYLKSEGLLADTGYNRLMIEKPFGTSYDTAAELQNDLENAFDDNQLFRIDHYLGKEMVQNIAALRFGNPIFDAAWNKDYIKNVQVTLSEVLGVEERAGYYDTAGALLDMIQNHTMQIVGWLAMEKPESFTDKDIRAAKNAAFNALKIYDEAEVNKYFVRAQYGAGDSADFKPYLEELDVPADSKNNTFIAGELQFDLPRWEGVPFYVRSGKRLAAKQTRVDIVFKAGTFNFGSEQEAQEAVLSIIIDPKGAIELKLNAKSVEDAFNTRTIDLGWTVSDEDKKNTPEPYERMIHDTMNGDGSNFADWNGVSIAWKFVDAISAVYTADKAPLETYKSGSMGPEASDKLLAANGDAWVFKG

fold binding relative to wt ClpB (in the absence of DnaK): 4 fold
Substance: ClpB_(E279A/E678A) (from UniProt P63284 1-857) (natural protein)
